Data on 78 sequences can be found in the supplement of paper PMC7877785.

± gives the uncertainty stated by the source.

The nature of the series: self-splicing fitness, log relative to wild type (ln ratio); higher = more splicing; Tetrahymena group I intron in knt gene, E. coli kanamycin selection, DiMSum; sequences stand for … in CUCUCU…GGAGGGAAAAGUUAUCAGGCAUGCACCUGGUAGCUAGUCUUUAAACCAAUAGAUUGCAUCGGUUUAAAAGGCAAGACCGUCAAAUUGCGGGAAAGGGGUCAACAGCCGUUCAGUACCAAGUCUCAGGGGAAACUUUGAGAUGGCCUUGCAAAGGGUAUGGUAAUAAGCUGACGGACAUGGUCCUAACCACGCAGCCAAGUCCUAAGUCAACAGAUCUUCUGUUGAUAUGGAUGCAGUUCACAGACUAAAUGUCGGUCGGGGAAGAUGUAUUCUUCUCAUAAGAUAUAGUCGGACCUCUCCUUAAUGGGAGCUAGCGGAUGAAGUGAUGCAACACUGGAGCCGCUGGGAACUAAUUUGUAUGCGAAAGUAUAUUGAUUAGUUUUGGAGUACUCGUGGUCG
An outline of the steps:
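Library with all eight P1ex-region intron nucleotides randomised, intron inside the knt kanamycin-resistance gene on pET-22b(+), in E. coli BL21(DE3). Cells grew overnight at 37°C or 30°C on LB agar with or without 25 μg/mL kanamycin (plus 100 μg/mL carbenicillin, 50 μM IPTG, 0.2% rhamnose), in six replicate transformations. Pooled colonies were amplicon-sequenced on Illumina HiSeq 2500. DiMSum fitness is the error-weighted combination of wild-type-normalised replicate fold changes, kanamycin versus none.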

Regarding GUUAAGCAAUAUUACGGAAG, the “self-splicing fitness (ln)” value (30 °C) is -3.2 ± 0.19 and the “self-splicing fitness (ln)” value (37 °C) was -1.6 ± 0.2.
As for AAUGAGCAAUAUUACGCGUU, the “self-splicing fitness (ln)” value was -3.81 ± 0.27 (30 °C) and -2.06 ± 0.23 (37 °C).
The corresponding values for CAGAAGCAAUAUUACGAUUA are -2.93 ± 0.17 and -1.51 ± 0.12.
On the same counts, the results for AAGUAGCAAUAUUACGUCGU are -0.969 ± 0.093 and -0.724 ± 0.11.
The corresponding values for ACACAGCAAUAUUACGAGAC are -3.25 ± 0.14 and -2.54 ± 0.17.
Take CGGCAGCAAUAUUACGCUUU: the “self-splicing fitness (ln)” value (30 °C) was -2.9 ± 0.2 and the “self-splicing fitness (ln)” value (37 °C) is -1.62 ± 0.13.
Consider AACCAGCAAUAUUACGAAAU, for which the “self-splicing fitness (ln)” value runs as follows: (30 °C) -1.08 ± 0.058; (37 °C) -0.397 ± 0.074.
Turning to CCACAGCAAUAUUACGCGUG, the “self-splicing fitness (ln)” value by setting is: (30 °C) -3.86 ± 0.18; (37 °C) -2.38 ± 0.14.
As to ACUAAGCAAUAUUACGCCAU, the “self-splicing fitness (ln)” value (37 °C) is -2.01 ± 0.29.
Take GGUUAGCAAUAUUACGGACA: the “self-splicing fitness (ln)” value runs as follows: (30 °C) -0.743 ± 0.12; (37 °C) 0.373 ± 0.15.
Take UCUUAGCAAUAUUACGCUUA: the “self-splicing fitness (ln)” value (37 °C) is -1.22 ± 0.28.
As for UUCGAGCAAUAUUACGCGAU, the “self-splicing fitness (ln)” value reads like this: (30 °C) -2.39 ± 0.21; (37 °C) -2.11 ± 0.27.
On the same counts, the results for UAUAAGCAAUAUUACGUCCA are -1.23 ± 0.12 and 0.113 ± 0.18.
The corresponding values for GUUUAGCAAUAUUACGUCUA are -1.25 ± 0.14 and -0.618 ± 0.13.
For GAGCAGCAAUAUUACGCUUC, the “self-splicing fitness (ln)” value (30 °C) is -2.37 ± 0.28.
Regarding UAGGAGCAAUAUUACGCGUA, the “self-splicing fitness (ln)” value (30 °C) was -1.12 ± 0.15 and the “self-splicing fitness (ln)” value (37 °C) was -0.31 ± 0.12.
On the same counts, the results for GCACAGCAAUAUUACGUUAC are -1.14 ± 0.074 and -0.837 ± 0.087.
The corresponding values for GCAUAGCAAUAUUACGAGCU are -3.2 ± 0.19 and -1.31 ± 0.15.
Turning to CCGUAGCAAUAUUACGUAGC, the “self-splicing fitness (ln)” value is, setting by setting: (30 °C) -3.91 ± 0.21; (37 °C) -2.63 ± 0.22.
Turning to UAAAAGCAAUAUUACGGAUU, the “self-splicing fitness (ln)” value is -2.12 ± 0.14 (30 °C) and -1.56 ± 0.19 (37 °C).
In the case of ACGUAGCAAUAUUACGCAAU, the “self-splicing fitness (ln)” value runs as follows: (30 °C) -2.95 ± 0.17; (37 °C) -1.53 ± 0.22.
The corresponding values for GUCCAGCAAUAUUACGGCUC are -0.432 ± 0.077 and 0.909 ± 0.12.
Consider GACCAGCAAUAUUACGUAAC, for which the “self-splicing fitness (ln)” value (30 °C) is -0.981 ± 0.065 and the “self-splicing fitness (ln)” value (37 °C) was -0.475 ± 0.079.
For UAUAAGCAAUAUUACGUGAA, the “self-splicing fitness (ln)” value reads like this: (30 °C) 0.0802 ± 0.12; (37 °C) -0.933 ± 0.15.
The corresponding values for GCGGAGCAAUAUUACGUACG are -2.97 ± 0.28 and -2.71 ± 0.44.
With GACCAGCAAUAUUACGAUAC, the “self-splicing fitness (ln)” value by setting is: (30 °C) -0.984 ± 0.056; (37 °C) -0.634 ± 0.066.
The corresponding values for UUCUAGCAAUAUUACGUGUG are -0.91 ± 0.06 and -0.542 ± 0.082.
On the same counts, the results for GUGCAGCAAUAUUACGUGUC are -2.72 ± 0.16 and -2.48 ± 0.25.
The corresponding values for UAACAGCAAUAUUACGUCGC are -3.59 ± 0.38 and -2.73 ± 0.44.
For the sequence UAGAAGCAAUAUUACGAACG, the “self-splicing fitness (ln)” value (30 °C) was -0.0437 ± 0.11 and the “self-splicing fitness (ln)” value (37 °C) was determined as 0.576 ± 0.14.
The corresponding values for AUACAGCAAUAUUACGCUUU are -3.04 ± 0.18 and -1.64 ± 0.15.
On the same counts, the results for UCUGAGCAAUAUUACGUUUU are -4.31 ± 0.29 and -3.26 ± 0.28.
On the same counts, the results for ACUCAGCAAUAUUACGCGCG are -1.21 ± 0.12 and -0.47 ± 0.11.
Turning to AACUAGCAAUAUUACGGGCG, the “self-splicing fitness (ln)” value (30 °C) was -0.139 ± 0.081 and the “self-splicing fitness (ln)” value (37 °C) was -0.0101 ± 0.11.
The corresponding values for CAGCAGCAAUAUUACGACCG are -0.0535 ± 0.096 and 0.48 ± 0.12.
AGUCAGCAAUAUUACGGGAG: the “self-splicing fitness (ln)” value by setting is: (30 °C) -3.52 ± 0.15; (37 °C) -1.41 ± 0.11.
For UCUCAGCAAUAUUACGCAGA, under “30 °C”, the “self-splicing fitness (ln)” value was -2.73 ± 0.49.
Take GUGCAGCAAUAUUACGCCCG: the “self-splicing fitness (ln)” value (30 °C) is -1.69 ± 0.36 and the “self-splicing fitness (ln)” value (37 °C) is -1.51 ± 0.37.
The corresponding values for UCUCAGCAAUAUUACGUAGA are -0.809 ± 0.091 and -0.77 ± 0.13.
The corresponding values for CCCAAGCAAUAUUACGAACU are -3.54 ± 0.34 and -2.91 ± 0.38.
The corresponding values for ACGAAGCAAUAUUACGACUA are -0.269 ± 0.083 and -0.184 ± 0.081.
For the sequence AAACAGCAAUAUUACGGGUU, the “self-splicing fitness (ln)” value (30 °C) was -2.28 ± 0.09 and the “self-splicing fitness (ln)” value (37 °C) is -1.8 ± 0.11.
The corresponding values for CCCCAGCAAUAUUACGCGAA are -4.21 ± 0.15 and -1.69 ± 0.14.
The corresponding values for UAGUAGCAAUAUUACGUCUC are -3.51 ± 0.45 and -1.59 ± 0.2.
As to GCUAAGCAAUAUUACGAGCU, the “self-splicing fitness (ln)” value was -2.25 ± 0.33 (30 °C) and -0.165 ± 0.31 (37 °C).
Turning to ACUGAGCAAUAUUACGCCCG, the “self-splicing fitness (ln)” value was -2.15 ± 0.25 (30 °C) and -0.509 ± 0.22 (37 °C).
The corresponding values for AAAGAGCAAUAUUACGAUGA are -3.01 ± 0.25 and -2.02 ± 0.19.
On the same counts, the results for UGCUAGCAAUAUUACGUCUC are -3.59 ± 0.16 and -2.91 ± 0.2.
On the same counts, the results for UACCAGCAAUAUUACGUAUG are -2.62 ± 0.073 and -1.58 ± 0.082.
Turning to AUAGAGCAAUAUUACGAAGA, the “self-splicing fitness (ln)” value (30 °C) was -1.28 ± 0.38.
Regarding GGUCAGCAAUAUUACGGUUU, the “self-splicing fitness (ln)” value (30 °C) was -0.421 ± 0.074 and the “self-splicing fitness (ln)” value (37 °C) stood at 0.264 ± 0.099.
GUAGAGCAAUAUUACGUGCC: the “self-splicing fitness (ln)” value (37 °C) was -2.12 ± 0.28.
As to GGGUAGCAAUAUUACGUGCC, the “self-splicing fitness (ln)” value (30 °C) was -0.954 ± 0.48.
As for CGCUAGCAAUAUUACGUUCA, the “self-splicing fitness (ln)” value (30 °C) was -1.39 ± 0.12 and the “self-splicing fitness (ln)” value (37 °C) is -1.68 ± 0.14.
On the same counts, the results for UUUAAGCAAUAUUACGUGAG are -0.404 ± 0.067 and -0.0655 ± 0.094.
With AUAGAGCAAUAUUACGAGAA, the “self-splicing fitness (ln)” value (37 °C) was -1.82 ± 0.32.
Regarding UCAUAGCAAUAUUACGGUUC, where the note is “30 °C”, the “self-splicing fitness (ln)” value was -3.57 ± 0.35.
As to UGGUAGCAAUAUUACGCAUA, the “self-splicing fitness (ln)” value by setting is: (30 °C) -1.11 ± 0.22; (37 °C) -0.547 ± 0.17.
With AAGUAGCAAUAUUACGGGAG, the “self-splicing fitness (ln)” value (30 °C) was -4.01 ± 0.27 and the “self-splicing fitness (ln)” value (37 °C) was -2.82 ± 0.23.
On the same counts, the results for AAGAAGCAAUAUUACGUGGU are -3.58 ± 0.14 and -2.23 ± 0.14.
The corresponding values for GCCGAGCAAUAUUACGAAGC are -2.8 ± 0.33 and -1.8 ± 0.46.
For UCAAAGCAAUAUUACGGAGC, for the setting “37 °C”, the “self-splicing fitness (ln)” value is -3.53 ± 0.33.
GCCUAGCAAUAUUACGACGA: the “self-splicing fitness (ln)” value runs as follows: (30 °C) -1.46 ± 0.14; (37 °C) -0.629 ± 0.13.
The corresponding values for UCAGAGCAAUAUUACGGUUG are -3.9 ± 0.31 and -2.35 ± 0.26.
On the same counts, the results for AUAUAGCAAUAUUACGAUAU are -1.87 ± 0.13 and -1.33 ± 0.13.
In the case of AAACAGCAAUAUUACGGUUU, the “self-splicing fitness (ln)” value is -3.64 ± 0.11 (30 °C) and -2.51 ± 0.12 (37 °C).
On the same counts, the results for UUAAAGCAAUAUUACGAAGC are -3.34 ± 0.32 and -2.25 ± 0.28.
On the same counts, the results for UGCUAGCAAUAUUACGCGGA are -2.16 ± 0.12 and -1.24 ± 0.12.
The corresponding values for ACCAAGCAAUAUUACGUGUC are -2.94 ± 0.11 and -3.34 ± 0.18.
For ACGCAGCAAUAUUACGGCUG, the “self-splicing fitness (ln)” value was -3.03 ± 0.16 (30 °C) and -3.01 ± 0.22 (37 °C).
Turning to UGCUAGCAAUAUUACGUAUG, the “self-splicing fitness (ln)” value was -1.1 ± 0.067 (30 °C) and -0.309 ± 0.089 (37 °C).
On the same counts, the results for AGCAAGCAAUAUUACGGAGA are -3.25 ± 0.17 and -2.35 ± 0.19.
On the same counts, the results for GGUGAGCAAUAUUACGUAAC are -2.35 ± 0.43 and -1.22 ± 0.28.
Turning to AUUUAGCAAUAUUACGGCAC, for the setting “30 °C”, the “self-splicing fitness (ln)” value is -0.95 ± 0.27.
Turning to GUGCAGCAAUAUUACGAGGU, the “self-splicing fitness (ln)” value was -3.63 ± 0.3 (30 °C) and -2.47 ± 0.21 (37 °C).
The corresponding values for GGAGAGCAAUAUUACGAUGU are -1.92 ± 0.15 and -1.74 ± 0.28.
UUCAAGCAAUAUUACGAGAC: the “self-splicing fitness (ln)” value was -3.86 ± 0.23 (30 °C) and -2.23 ± 0.19 (37 °C).
For UUUUAGCAAUAUUACGGCAG, the “self-splicing fitness (ln)” value (30 °C) is -0.809 ± 0.11 and the “self-splicing fitness (ln)” value (37 °C) is -0.727 ± 0.15.
